According to publication PMC4588518:

Target: LegK4^1–445 (Legionella pneumophila LegK4, residues 1 to 445) (Legionella pneumophila)
Assay: SEC-SAXS

With “LegK4^1–445 (Legionella pneumophila LegK4, residues 1 to 445) (domain or fragment)” the stoichiometry N was 2.
